± gives the standard error. Variants at the floor of the assay were thinned out.
B1: glmS ribozyme (parent)
chain: AUAAAAGCGCCAGAACUACAGAAAUGUAGUUGACGAGGAGGAGGUUUAUCGAAUUUUCGGCGGAUGCCUCCAAA

Variants of: B1
Experiment: self-cleavage kobs at 640 uM GlcN6P; higher = faster cleavage; RNA array
Conditions: with glucosamine-6-phosphate
Outline: (§1)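 Tiles of sequenced MiSeq chips were imaged over ~14 h at 37 °C. On them, barcoded ribozyme variants had been transcribed in situ by E. coli RNA polymerase and were tracked via a hybridised Cy3 probe while glucosamine-6-phosphate (40 μM to 10 mM) in HEPES/KCl/Mg(OAc)2 buffer flowed in. Per-tile medians, normalised to baseline and to non-cleaving reference variants, were fit to one- or two-exponential decays for kobs, and weighted Michaelis–Menten fits gave kcat and KM.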

| Variant | self-cleavage kobs at 640 uM GlcN6P [s⁻¹] |
| --- | --- |
| G7A A15U G51C A64G | < 1e-05 |
| G7C A36U C67G | < 1e-05 |
| G7A A39U U49A | < 1e-05 |
| G7C U46C | < 1e-05 |
| G7C G13A G43C G51C A52G C58A G66C C68A | < 1e-05 |
| A6U U31A G35U A42U G62U | < 1e-05 |
| A6U C16U U54A | 4.1e-05 ± 1.3e-05 |
| C8A C11A G44A | < 1e-05 |
| A6U A39C U56C C67G | < 1e-05 |
| A6U C16U G40U C67A | < 1e-05 |
| G7U A36G G38U | < 1e-05 |
| G7U C16U U30G | < 1e-05 |
| G7A A12G U31A C68G | 0.000116 ± 3.5e-05 |
| C8A G32A A36C G41A A42U | < 1e-05 |
| C8G C10G A12U A14G G43A C58U | < 1e-05 |
| G7U G9A A14U U55C | < 1e-05 |
| A6G U31G G37U | < 1e-05 |
| G7A U55C C58G | < 1e-05 |
| G7U C67U C71G | 7.36e-05 ± 2.2e-05 |
| A6U G38U A39C U55A | < 1e-05 |
| A6U G9C C16G C71U | < 1e-05 |
| G7A C16G U30G G44U A52G | < 1e-05 |
| A6U G37U A48C C67G | < 1e-05 |

| Variant | self-cleavage kobs at 640 uM GlcN6P [s⁻¹] |
| --- | --- |
| C8A C16A G63U A64G U65C C71G | < 1e-05 |
| C8A U57G | < 1e-05 |
| A6U G37C G38A C71A | < 1e-05 |
| A6U A15G G62U U69G | 0.000197 ± 5.9e-05 |
| C8A G9C G37C | < 1e-05 |
| G7U U31G C70A | 0.000541 ± 0.00017 |
| G7A C11U A52U C58A G62U | < 1e-05 |
| A6U G29A G37A G38A A42C G43U G62U C70U | < 1e-05 |
| A6U C8A U31G | < 1e-05 |
| G7U G9A G38U | < 1e-05 |
| G7C C34A A42C C71U | < 1e-05 |
| G7A A39G A64C C71U | < 1e-05 |
| A6U G13U G37U A48U U69G | 9.26e-05 ± 2.7e-05 |
| C8G C11G A14C A39G C50G | 8.19e-05 ± 2.8e-05 |
| C8A U45C C67U | < 1e-05 |
| G7A G9U G13U A48C | < 1e-05 |
| C8A U31G C61A | < 1e-05 |
| G7C A12U G41U | < 1e-05 |
| G7U C8A G13A | < 1e-05 |
| A6U C11G C68A C70G | < 1e-05 |
| G7C A39C G40C G44U | < 1e-05 |
| G7C C10A C71A | < 1e-05 |
| G7A G32C G51U | < 1e-05 |

| Variant | self-cleavage kobs at 640 uM GlcN6P [s⁻¹] |
| --- | --- |
| A6U G29A U31A G43C U46G C58G | < 1e-05 |
| G7A C16U C71A | < 1e-05 |
| G7A A52G U57A | < 1e-05 |
| A6U C61G C67A | 0.000106 ± 3.9e-05 |
| A6U A15U G40U G43C | < 1e-05 |
| G7U A39C A42C | < 1e-05 |
| C8A C16U G38A | < 1e-05 |
| C8A C11U A36G | < 1e-05 |
| G7A U31C A52G | < 1e-05 |
| G7U C61G C67A | 0.000105 ± 4.6e-05 |
| G7U G9C G29C A39G U46A A52U U55C C67G C70U | < 1e-05 |
| A6U G35C C68G C70U | 0.000713 ± 0.00023 |
| G7U G40A G60U | < 1e-05 |
| C8A C11U G60C C67A | < 1e-05 |
| A6U A12U G37U | < 1e-05 |
| G7A G38C G59C | < 1e-05 |
| A6U G40C G44C C50U | < 1e-05 |
| G7A C8A G9A G62A | < 1e-05 |
| C8A G32A G66U | < 1e-05 |
| C8G C11U A15U G29C G41U | < 1e-05 |
| C8A A15U A48C | < 1e-05 |
| A6G G37A U46A U54A | < 1e-05 |

Variants of: B1
Experiment: self-cleavage kobs at 2500 uM GlcN6P; higher = faster cleavage; RNA array
Conditions: with glucosamine-6-phosphate
Outline: as §1

| Variant | self-cleavage kobs at 2500 uM GlcN6P [s⁻¹] |
| --- | --- |
| G7C A36U C67G | < 1e-05 |
| G7C U46C | < 1e-05 |
| A6U U31A G35U A42U G62U | < 1e-05 |
| A6U C16U U54A | 0.000121 ± 3e-05 |
| A6U C16U G40U C67A | < 1e-05 |
| C8A G32A A36C G41A A42U | < 1e-05 |
| A6G U31G G37U | < 1e-05 |
| A6U G38U A39C U55A | < 1e-05 |
| G7A C16G U30G G44U A52G | < 1e-05 |
| A6U G37U A48C C67G | < 1e-05 |
| C8A U57G | < 1e-05 |
| A6U G29A G37A G38A A42C G43U G62U C70U | < 1e-05 |
| A6U C8A U31G | < 1e-05 |
| G7A A39G A64C C71U | < 1e-05 |
| G7C A12U G41U | < 1e-05 |
| A6U C11G C68A C70G | < 1e-05 |
| A6U G29A U31A G43C U46G C58G | < 1e-05 |
| G7A A52G U57A | < 1e-05 |
| A6U C61G C67A | 0.00149 ± 0.00065 |
| G7U A39C A42C | < 1e-05 |
| C8A C11U A36G | < 1e-05 |
| G7U C61G C67A | 0.00214 ± 0.00087 |
| G7U G9C G29C A39G U46A A52U U55C C67G C70U | < 1e-05 |
| G7U G40A G60U | < 1e-05 |
| C8A C11U G60C C67A | < 1e-05 |
| A6U G40C G44C C50U | < 1e-05 |

Variants of: B1
Experiment: self-cleavage kobs at 10000 uM GlcN6P; higher = faster cleavage; RNA array
Conditions: with glucosamine-6-phosphate
Outline: as §1

| Variant | self-cleavage kobs at 10000 uM GlcN6P [s⁻¹] |
| --- | --- |
| G7C A36U C67G | < 1e-05 |
| G7C U46C | < 1e-05 |
| C8A U31G C61A | < 1e-05 |
| C8A C16U G38A | < 1e-05 |
| C8A C11U G60C C67A | < 1e-05 |
| G7A C8A G9A G62A | < 1e-05 |
| C8G C11U A15U G29C G41U | < 1e-05 |
| A6G G37A U46A U54A | < 1e-05 |

Source: the supplement of paper PMC7125110
